In paper PMC9482650, “Quantitative fragmentomics allow affinity mapping of interactomes” (Nature Communications, 2022):
One block for each binder: values may come before it.

Tests used:
Assay in all cases: holdup assay
Parameters in all cases: key: below the threshold = too weak to quantify, mostly under pKd 3.1 to 4
Conditions in all cases: plain residues with an end cap or a label only (N-terminal biotin on a linker: ado-ado)
MAGI1_1, Q96QZ7 = molecular target: MAGI1_1, Q96QZ7
LNX1_2, Q8TBB1 = molecular target: LNX1_2, Q8TBB1
Sequence of LNX1_2, Q8TBB1 (Q8TBB1 371-470): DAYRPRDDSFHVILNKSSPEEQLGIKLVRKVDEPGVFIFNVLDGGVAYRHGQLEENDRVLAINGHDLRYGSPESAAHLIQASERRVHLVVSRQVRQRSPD

GRIP2_7, Q9C0E4 = molecular target: GRIP2_7, Q9C0E4
Sequence of GRIP2_7, Q9C0E4 (Q9C0E4 934-1023): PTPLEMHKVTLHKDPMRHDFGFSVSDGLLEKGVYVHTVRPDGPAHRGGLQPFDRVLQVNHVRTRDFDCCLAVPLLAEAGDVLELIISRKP

RADIL, Q96JH8 = molecular target: T1, RADIL, Q96JH8
T1 sequence (Q96JH8 971-1071, limits assumed, looked up): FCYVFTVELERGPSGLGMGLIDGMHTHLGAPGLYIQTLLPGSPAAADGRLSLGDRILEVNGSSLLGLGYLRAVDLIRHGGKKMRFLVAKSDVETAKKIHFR

LNX1_1, Q8TBB1 = molecular target: LNX1_1, Q8TBB1
Sequence of LNX1_1, Q8TBB1 (Q8TBB1 261-371): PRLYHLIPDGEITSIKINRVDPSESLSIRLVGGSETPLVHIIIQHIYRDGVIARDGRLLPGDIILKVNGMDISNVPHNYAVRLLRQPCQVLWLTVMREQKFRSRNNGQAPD

APBA3_1, O96018 = molecular target: T2, APBA3_1, O96018
T2 sequence (O96018 389-490, limits assumed, looked up): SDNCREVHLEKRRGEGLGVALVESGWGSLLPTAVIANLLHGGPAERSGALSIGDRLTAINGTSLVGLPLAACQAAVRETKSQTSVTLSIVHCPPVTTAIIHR

GRIP1_3, Q9Y3R0 = molecular target: T3, GRIP1_3, Q9Y3R0
T3 sequence (Q9Y3R0 247-346, limits assumed, looked up): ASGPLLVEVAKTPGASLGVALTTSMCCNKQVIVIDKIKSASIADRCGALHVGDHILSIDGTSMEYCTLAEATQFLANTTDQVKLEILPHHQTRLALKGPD

GRIP2_4, Q9C0E4 = molecular target: GRIP2_4, Q9C0E4
Sequence of GRIP2_4, Q9C0E4 (Q9C0E4 446-548): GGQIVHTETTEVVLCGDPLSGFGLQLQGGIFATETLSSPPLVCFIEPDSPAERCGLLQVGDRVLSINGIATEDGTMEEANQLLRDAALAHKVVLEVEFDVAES

SNTB1, Q13884 = molecular target: T4, SNTB1, Q13884
T4 sequence (Q13884 107-205, limits assumed, looked up): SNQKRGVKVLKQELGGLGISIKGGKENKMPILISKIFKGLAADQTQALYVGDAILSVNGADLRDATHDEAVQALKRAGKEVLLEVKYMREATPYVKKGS

Inadl_6, Q8NI35 = molecular target: Inadl_6, Q8NI35
Sequence of Inadl_6, Q8NI35 (Q8NI35 1058-1167): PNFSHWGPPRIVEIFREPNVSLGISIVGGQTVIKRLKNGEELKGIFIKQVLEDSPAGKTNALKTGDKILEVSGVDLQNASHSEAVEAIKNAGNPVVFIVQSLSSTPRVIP

DLG4_3, P78352 = molecular target: DLG4_3, P78352
Sequence of DLG4_3, P78352 (P78352 306-403): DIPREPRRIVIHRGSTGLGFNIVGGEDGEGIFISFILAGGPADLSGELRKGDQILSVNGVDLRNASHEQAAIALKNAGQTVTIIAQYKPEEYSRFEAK

GORASP1, Q9BQQ3 = molecular target: GORASP1, Q9BQQ3
Sequence of GORASP1, Q9BQQ3 (Q9BQQ3 1-208): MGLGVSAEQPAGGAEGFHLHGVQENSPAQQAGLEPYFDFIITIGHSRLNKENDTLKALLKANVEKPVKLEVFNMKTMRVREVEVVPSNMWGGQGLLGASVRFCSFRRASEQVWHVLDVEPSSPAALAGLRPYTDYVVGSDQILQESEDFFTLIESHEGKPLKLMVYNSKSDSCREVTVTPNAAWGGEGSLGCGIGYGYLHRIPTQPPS

SNX27, Q96L92 = molecular target: SNX27, Q96L92
DLG5_1, Q8TDM6 = molecular target: DLG5_1, Q8TDM6
Sequence of DLG5_1, Q8TDM6 (Q8TDM6 617-713): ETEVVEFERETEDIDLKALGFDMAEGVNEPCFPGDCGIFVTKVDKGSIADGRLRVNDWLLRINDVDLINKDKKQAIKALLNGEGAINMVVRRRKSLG

GRIP1_5, Q9Y3R0 = molecular target: T5, GRIP1_5, Q9Y3R0
T5 sequence (Q9Y3R0 568-668, limits assumed, looked up): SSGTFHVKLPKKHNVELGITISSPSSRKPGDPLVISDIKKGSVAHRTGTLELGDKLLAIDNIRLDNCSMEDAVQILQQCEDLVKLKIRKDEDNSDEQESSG

PDZRN3_1, Q9UPQ7 = molecular target: T6, PDZRN3_1, Q9UPQ7
T6 sequence (Q9UPQ7 244-349, limits assumed, looked up): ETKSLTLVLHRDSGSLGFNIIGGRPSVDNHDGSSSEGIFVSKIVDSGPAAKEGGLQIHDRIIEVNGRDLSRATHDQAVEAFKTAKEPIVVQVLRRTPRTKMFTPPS

PICK1, Q9NRD5 = molecular target: PICK1, Q9NRD5
Sequence of PICK1, Q9NRD5 (Q9NRD5 17-115): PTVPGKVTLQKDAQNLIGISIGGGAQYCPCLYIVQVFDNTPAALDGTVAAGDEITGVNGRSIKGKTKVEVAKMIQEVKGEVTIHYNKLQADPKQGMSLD

MAGI1_2, Q96QZ7 = molecular target: MAGI1_2, Q96QZ7
Sequence of MAGI1_2, Q96QZ7 (Q96QZ7 456-580): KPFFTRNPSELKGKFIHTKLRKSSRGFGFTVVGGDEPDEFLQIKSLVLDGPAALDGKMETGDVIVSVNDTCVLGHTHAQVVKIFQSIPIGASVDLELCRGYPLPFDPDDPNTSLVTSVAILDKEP

DFNB31_1, Q9P202 = molecular target: T7, DFNB31_1, Q9P202
T7 sequence (Q9P202 135-233, limits assumed, looked up): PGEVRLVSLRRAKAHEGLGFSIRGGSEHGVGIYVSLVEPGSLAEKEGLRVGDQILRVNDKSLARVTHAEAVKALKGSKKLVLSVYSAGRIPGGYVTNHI

MAGI2_5, Q86UL8 = molecular target: MAGI2_5, Q86UL8
Sequence of MAGI2_5, Q86UL8 (Q86UL8 915-1017): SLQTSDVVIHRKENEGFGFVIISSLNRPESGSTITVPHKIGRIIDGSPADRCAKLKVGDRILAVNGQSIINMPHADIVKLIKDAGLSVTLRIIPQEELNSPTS

IL16_4, Q14005 = molecular target: IL16_4, Q14005
Sequence of IL16_4, Q14005 (Q14005 1229-1329): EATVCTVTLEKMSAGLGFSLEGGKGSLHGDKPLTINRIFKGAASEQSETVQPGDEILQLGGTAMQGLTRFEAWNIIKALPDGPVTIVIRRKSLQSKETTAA

GIPC2, Q8TF65 = molecular target: GIPC2, Q8TF65
Sequence of GIPC2, Q8TF65 (Q8TF65 112-203): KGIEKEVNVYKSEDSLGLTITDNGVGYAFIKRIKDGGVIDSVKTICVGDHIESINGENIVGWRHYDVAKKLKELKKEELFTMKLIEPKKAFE

Inadl_1, Q8NI35 = molecular target: Inadl_1, Q8NI35
Sequence of Inadl_1, Q8NI35 (Q8NI35 113-229): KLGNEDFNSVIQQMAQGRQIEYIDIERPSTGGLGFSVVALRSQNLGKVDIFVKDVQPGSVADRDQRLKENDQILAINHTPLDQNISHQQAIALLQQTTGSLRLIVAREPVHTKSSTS

LNX1_3, Q8TBB1 = molecular target: LNX1_3, Q8TBB1
Sequence of LNX1_3, Q8TBB1 (Q8TBB1 500-596): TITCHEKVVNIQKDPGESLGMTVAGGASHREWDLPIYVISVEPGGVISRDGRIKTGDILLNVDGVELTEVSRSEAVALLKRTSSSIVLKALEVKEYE

MAGI2_6, Q86UL8 = molecular target: MAGI2_6, Q86UL8
Sequence of MAGI2_6, Q86UL8 (Q86UL8 1141-1229): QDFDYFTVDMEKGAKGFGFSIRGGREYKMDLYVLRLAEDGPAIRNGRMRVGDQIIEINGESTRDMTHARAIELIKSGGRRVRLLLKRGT

SCRIB_3, Q14160 = molecular target: SCRIB_3, Q14160
Sequence of SCRIB_3, Q14160 (Q14160 999-1103): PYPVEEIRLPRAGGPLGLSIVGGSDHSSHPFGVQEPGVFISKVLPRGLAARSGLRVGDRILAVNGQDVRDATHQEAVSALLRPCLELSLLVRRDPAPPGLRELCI

FRMPD4, Q14CM0 = molecular target: FRMPD4, Q14CM0
Sequence of FRMPD4, Q14CM0 (Q14CM0 67-160): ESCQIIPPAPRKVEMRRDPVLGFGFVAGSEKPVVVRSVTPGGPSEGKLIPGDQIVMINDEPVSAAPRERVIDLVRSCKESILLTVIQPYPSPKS

PDZRN4_1, Q6ZMN7 = molecular target: PDZRN4_1, Q6ZMN7
Sequence of PDZRN4_1, Q6ZMN7 (Q6ZMN7 213-318): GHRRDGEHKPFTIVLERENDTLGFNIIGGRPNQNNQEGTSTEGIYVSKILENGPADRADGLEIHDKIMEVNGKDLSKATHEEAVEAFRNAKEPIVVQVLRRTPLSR

TX1BP3, O14907 = molecular target: T8, TX1BP3, O14907
T8 sequence (O14907 10-122, limits assumed, looked up): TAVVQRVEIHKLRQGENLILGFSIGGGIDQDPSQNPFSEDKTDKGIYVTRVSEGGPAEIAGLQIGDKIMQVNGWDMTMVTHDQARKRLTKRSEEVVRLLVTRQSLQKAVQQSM

Sequence of MAGI1_1, Q96QZ7 (Q96QZ7 1-106): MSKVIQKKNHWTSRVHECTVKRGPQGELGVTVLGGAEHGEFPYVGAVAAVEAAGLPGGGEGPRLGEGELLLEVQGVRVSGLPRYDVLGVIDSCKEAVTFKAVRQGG

Binder: SSSVNVSSNL [CXCR1, P25024]
pKd (MAGI1_1, Q96QZ7): below the threshold
pKd (LNX1_2, Q8TBB1): below the threshold
pKd (GRIP2_7, Q9C0E4): below the threshold
pKd (RADIL, Q96JH8): below the threshold
pKd (LNX1_1, Q8TBB1): 3.59
pKd (APBA3_1, O96018): below the threshold
pKd (GRIP1_3, Q9Y3R0): below the threshold
pKd (GRIP2_4, Q9C0E4): below the threshold
pKd (SNTB1, Q13884): below the threshold
pKd (Inadl_6, Q8NI35): below the threshold
pKd (DLG4_3, P78352): below the threshold
pKd (GORASP1, Q9BQQ3): below the threshold
pKd (SNX27, Q96L92): 3.68
pKd (DLG5_1, Q8TDM6): below the threshold
pKd (GRIP1_5, Q9Y3R0): below the threshold
pKd (PDZRN3_1, Q9UPQ7): below the threshold
pKd (PICK1, Q9NRD5): 4.12
pKd (MAGI1_2, Q96QZ7): below the threshold
pKd (DFNB31_1, Q9P202): 3.56
pKd (MAGI2_5, Q86UL8): below the threshold
pKd (IL16_4, Q14005): below the threshold
pKd (GIPC2, Q8TF65): below the threshold
pKd (Inadl_1, Q8NI35): below the threshold
pKd (LNX1_3, Q8TBB1): below the threshold
pKd (MAGI2_6, Q86UL8): below the threshold
pKd (SCRIB_3, Q14160): 4.02
pKd (FRMPD4, Q14CM0): 3.57
pKd (PDZRN4_1, Q6ZMN7): below the threshold
pKd (TX1BP3, O14907): 3.84

Binder: LPPPESESKV [KCNJ9, Q92806]
pKd (MAGI1_1, Q96QZ7): below the threshold
pKd (LNX1_2, Q8TBB1): below the threshold
pKd (GRIP2_7, Q9C0E4): below the threshold
pKd (RADIL, Q96JH8): below the threshold
pKd (LNX1_1, Q8TBB1): below the threshold
pKd (APBA3_1, O96018): below the threshold
pKd (GRIP1_3, Q9Y3R0): below the threshold
pKd (GRIP2_4, Q9C0E4): below the threshold
pKd (SNTB1, Q13884): 4.32
pKd (Inadl_6, Q8NI35): below the threshold
pKd (DLG4_3, P78352): below the threshold
pKd (GORASP1, Q9BQQ3): below the threshold
pKd (SNX27, Q96L92): 5.43
pKd (DLG5_1, Q8TDM6): below the threshold
pKd (GRIP1_5, Q9Y3R0): below the threshold
pKd (PDZRN3_1, Q9UPQ7): below the threshold
pKd (PICK1, Q9NRD5): 4
pKd (MAGI1_2, Q96QZ7): below the threshold
pKd (DFNB31_1, Q9P202): 4.01
pKd (MAGI2_5, Q86UL8): below the threshold
pKd (IL16_4, Q14005): below the threshold
pKd (GIPC2, Q8TF65): below the threshold
pKd (Inadl_1, Q8NI35): below the threshold
pKd (LNX1_3, Q8TBB1): below the threshold
pKd (MAGI2_6, Q86UL8): 3.48
pKd (SCRIB_3, Q14160): below the threshold
pKd (FRMPD4, Q14CM0): below the threshold
pKd (PDZRN4_1, Q6ZMN7): below the threshold
pKd (TX1BP3, O14907): below the threshold

Binder: LLQEEWETVM [PTH1R, Q03431]
pKd (MAGI1_1, Q96QZ7): below the threshold
pKd (LNX1_2, Q8TBB1): below the threshold
pKd (GRIP2_7, Q9C0E4): below the threshold
pKd (RADIL, Q96JH8): 3.99
pKd (LNX1_1, Q8TBB1): 3.72
pKd (APBA3_1, O96018): below the threshold
pKd (GRIP1_3, Q9Y3R0): below the threshold
pKd (GRIP2_4, Q9C0E4): below the threshold
pKd (SNTB1, Q13884): 4.24
pKd (Inadl_6, Q8NI35): 4.12
pKd (DLG4_3, P78352): below the threshold
pKd (GORASP1, Q9BQQ3): 4.31
pKd (SNX27, Q96L92): 5.65
pKd (DLG5_1, Q8TDM6): below the threshold
pKd (GRIP1_5, Q9Y3R0): below the threshold
pKd (PDZRN3_1, Q9UPQ7): 3.83
pKd (PICK1, Q9NRD5): 4.22
pKd (MAGI1_2, Q96QZ7): below the threshold
pKd (DFNB31_1, Q9P202): 3.84
pKd (MAGI2_5, Q86UL8): 4.4
pKd (IL16_4, Q14005): 3.93
pKd (GIPC2, Q8TF65): below the threshold
pKd (Inadl_1, Q8NI35): below the threshold
pKd (LNX1_3, Q8TBB1): below the threshold
pKd (MAGI2_6, Q86UL8): 3.75
pKd (SCRIB_3, Q14160): 4.64
pKd (FRMPD4, Q14CM0): 4.12
pKd (PDZRN4_1, Q6ZMN7): 4.2
pKd (TX1BP3, O14907): below the threshold

Further lines, results first:

pKd (MAGI1_1, Q96QZ7): below the threshold
pKd (LNX1_2, Q8TBB1): below the threshold
pKd (GRIP2_7, Q9C0E4): below the threshold
pKd (RADIL, Q96JH8): below the threshold
pKd (LNX1_1, Q8TBB1): below the threshold
pKd (APBA3_1, O96018): below the threshold
pKd (GRIP1_3, Q9Y3R0): below the threshold
pKd (GRIP2_4, Q9C0E4): below the threshold
pKd (SNTB1, Q13884): below the threshold
pKd (Inadl_6, Q8NI35): below the threshold
pKd (DLG4_3, P78352): below the threshold
pKd (GORASP1, Q9BQQ3): below the threshold
pKd (SNX27, Q96L92): 3.65
pKd (DLG5_1, Q8TDM6): below the threshold
pKd (GRIP1_5, Q9Y3R0): below the threshold
pKd (PDZRN3_1, Q9UPQ7): below the threshold
pKd (PICK1, Q9NRD5): below the threshold
pKd (MAGI1_2, Q96QZ7): 3.62
pKd (DFNB31_1, Q9P202): below the threshold
pKd (MAGI2_5, Q86UL8): below the threshold
pKd (IL16_4, Q14005): below the threshold
pKd (GIPC2, Q8TF65): below the threshold
pKd (Inadl_1, Q8NI35): below the threshold
pKd (LNX1_3, Q8TBB1): below the threshold
pKd (MAGI2_6, Q86UL8): below the threshold
pKd (SCRIB_3, Q14160): below the threshold
pKd (FRMPD4, Q14CM0): 3.58
pKd (PDZRN4_1, Q6ZMN7): 3.66
pKd (TX1BP3, O14907): 3.53
Binder: KKTPVSRSHL [SLC22A3, O75751]

pKd (MAGI1_1, Q96QZ7): below the threshold
pKd (LNX1_2, Q8TBB1): below the threshold
pKd (GRIP2_7, Q9C0E4): below the threshold
pKd (RADIL, Q96JH8): below the threshold
pKd (LNX1_1, Q8TBB1): below the threshold
pKd (APBA3_1, O96018): below the threshold
pKd (GRIP1_3, Q9Y3R0): below the threshold
pKd (GRIP2_4, Q9C0E4): below the threshold
pKd (SNTB1, Q13884): below the threshold
pKd (Inadl_6, Q8NI35): below the threshold
pKd (DLG4_3, P78352): below the threshold
pKd (GORASP1, Q9BQQ3): below the threshold
pKd (SNX27, Q96L92): 5.62
pKd (DLG5_1, Q8TDM6): below the threshold
pKd (GRIP1_5, Q9Y3R0): below the threshold
pKd (PDZRN3_1, Q9UPQ7): below the threshold
pKd (PICK1, Q9NRD5): below the threshold
pKd (MAGI1_2, Q96QZ7): below the threshold
pKd (DFNB31_1, Q9P202): 4.01
pKd (MAGI2_5, Q86UL8): 4.1
pKd (IL16_4, Q14005): below the threshold
pKd (GIPC2, Q8TF65): below the threshold
pKd (Inadl_1, Q8NI35): below the threshold
pKd (LNX1_3, Q8TBB1): below the threshold
pKd (MAGI2_6, Q86UL8): 4
pKd (SCRIB_3, Q14160): 4.02
pKd (FRMPD4, Q14CM0): below the threshold
pKd (PDZRN4_1, Q6ZMN7): below the threshold
pKd (TX1BP3, O14907): 3.93
Binder: NNMAFETTHF [SLC5A12, Q1EHB4]
